Test results published in publication PMC10397247.
Where two headings read alike, the source gives them in different places.

Experiments:
4H918-bN = molecular target: T1, 4H918-bN; test: two-hybrid library CCNG1;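 note: natural log of median RNA to DNA barcode read ratio; higher means stronger binding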
T1 chain: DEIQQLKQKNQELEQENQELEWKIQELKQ

4H906-bA = molecular target: T2, 4H906-bA; test: two-hybrid library CCNG1;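 note: natural log of median RNA to DNA barcode read ratio; higher means stronger binding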
T2 chain: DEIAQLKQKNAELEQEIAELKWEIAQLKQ

4H993-AA = molecular target: T3, 4H993-AA; test: two-hybrid library CCmax;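 note: natural log of median RNA to DNA barcode read ratio; higher means stronger binding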
T3 chain: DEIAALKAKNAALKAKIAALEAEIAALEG

4H881-AA = molecular target: T4, 4H881-AA; test: two-hybrid library CCmax;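 note: natural log of median RNA to DNA barcode read ratio; higher means stronger binding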
T4 chain: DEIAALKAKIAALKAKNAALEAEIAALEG

4H906-AA = molecular target: T5, 4H906-AA; test: two-hybrid library CCmax;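 note: natural log of median RNA to DNA barcode read ratio; higher means stronger binding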
T5 chain: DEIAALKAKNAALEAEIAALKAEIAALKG

4H794-AA = molecular target: T6, 4H794-AA; test: two-hybrid library CCmax;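 note: natural log of median RNA to DNA barcode read ratio; higher means stronger binding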
T6 chain: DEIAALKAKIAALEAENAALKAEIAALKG

4H780-AA = molecular target: T7, 4H780-AA; test: two-hybrid library CCmax
T7 chain: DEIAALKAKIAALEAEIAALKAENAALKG

4H710-AA = molecular target: T8, 4H710-AA; test: two-hybrid library CCmax
T8 chain: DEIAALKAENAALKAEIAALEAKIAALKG

4H745-AA = molecular target: T9, 4H745-AA; test: two-hybrid library CCmax; conditions: mean of both orientations
T9 chain: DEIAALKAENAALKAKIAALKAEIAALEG

4H850-AA = molecular target: T10, 4H850-AA; test: two-hybrid library CCmax; conditions: mean of both orientations
T10 chain: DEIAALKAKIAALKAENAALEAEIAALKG

4H891-AA = molecular target: T11, 4H891-AA; test: two-hybrid library CCmax
T11 chain: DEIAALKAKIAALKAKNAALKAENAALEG

4H570-AA = molecular target: T12, 4H570-AA; test: two-hybrid library CCmax; conditions: mean of both orientations
T12 chain: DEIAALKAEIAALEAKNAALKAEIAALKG

4H930-AA = molecular target: T13, 4H930-AA; test: two-hybrid library CCmax
T13 chain: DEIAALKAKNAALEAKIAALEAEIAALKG

4H909-AA = molecular target: T14, 4H909-AA; test: two-hybrid library CCmax; conditions: mean of both orientations
T14 chain: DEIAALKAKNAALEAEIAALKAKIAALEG

4H94-AA = molecular target: T15, 4H94-AA; test: two-hybrid library CCmax
T15 chain: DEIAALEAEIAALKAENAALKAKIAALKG

4H797-AA = molecular target: T16, 4H797-AA; test: two-hybrid library CCmax; conditions: mean of both orientations
T16 chain: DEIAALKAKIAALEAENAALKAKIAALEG

4H629-AA = molecular target: T17, 4H629-AA; test: two-hybrid library CCmax; conditions: mean of both orientations
T17 chain: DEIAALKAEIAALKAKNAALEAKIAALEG

4H536-AA = molecular target: T18, 4H536-AA; test: two-hybrid library CCmax
T18 chain: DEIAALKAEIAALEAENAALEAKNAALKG

4H605-AA = molecular target: T19, 4H605-AA; test: two-hybrid library CCmax
T19 chain: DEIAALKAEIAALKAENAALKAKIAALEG

4H678-AA = molecular target: T20, 4H678-AA; test: two-hybrid library CCmax; conditions: mean of both orientations
T20 chain: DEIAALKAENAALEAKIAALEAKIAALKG

4H717-AA = molecular target: T21, 4H717-AA; test: two-hybrid library CCmax; conditions: mean of both orientations
T21 chain: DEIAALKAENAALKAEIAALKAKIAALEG

B1: 4H906-bA (peptide)
chain: DEIAQLKQKNAELEQEIAELKWEIAQLKQ
interaction score (4H918-bN): -0.333
interaction score (4H906-bA): 0.95

B2: 4H881-AA (peptide)
chain: DEIAALKAKIAALKAKNAALEAEIAALEG
interaction score (4H993-AA; mean of both orientations): 1.82
interaction score (4H881-AA): -0.685
interaction score (4H906-AA; mean of both orientations): -1.49

B3: 4H794-AA (peptide)
chain: DEIAALKAKIAALEAENAALKAEIAALKG
interaction score (4H993-AA; mean of both orientations): -1.99
interaction score (4H794-AA): 1.84
interaction score (4H881-AA; mean of both orientations): -0.532
interaction score (4H906-AA; mean of both orientations): -1.42

B4: 4H780-AA (peptide)
chain: DEIAALKAKIAALEAEIAALKAENAALKG
interaction score (4H993-AA; mean of both orientations): -1.51
interaction score (4H794-AA; mean of both orientations): -1.57
interaction score (4H780-AA): 1.68
interaction score (4H881-AA; mean of both orientations): -1.27
interaction score (4H906-AA; mean of both orientations): -1.19

B5: 4H906-AA (peptide)
chain: DEIAALKAKNAALEAEIAALKAEIAALKG
interaction score (4H993-AA; mean of both orientations): -0.00106
interaction score (4H906-AA): 1.74

B6: 4H993-AA (peptide)
chain: DEIAALKAKNAALKAKIAALEAEIAALEG
interaction score (4H993-AA): 1.19

B7: 4H536-AA (peptide)
chain: DEIAALKAEIAALEAENAALEAKNAALKG
interaction score (4H710-AA; mean of both orientations): -1.44
interaction score (4H745-AA): -1.07
interaction score (4H850-AA): 1.35
interaction score (4H891-AA; mean of both orientations): 1.78
interaction score (4H570-AA): 1.1
interaction score (4H930-AA; mean of both orientations): -1.56
interaction score (4H909-AA): -1.61
interaction score (4H94-AA; mean of both orientations): -0.957
interaction score (4H797-AA): -0.504
interaction score (4H629-AA): 0.302
interaction score (4H536-AA): 0.339

B8: 4H710-AA (peptide)
chain: DEIAALKAENAALKAEIAALEAKIAALKG
interaction score (4H710-AA): 0.809
interaction score (4H745-AA): 1.86
interaction score (4H850-AA): -1.15
interaction score (4H891-AA; mean of both orientations): -1.65
interaction score (4H930-AA; mean of both orientations): -0.472
interaction score (4H909-AA): -0.464
interaction score (4H94-AA; mean of both orientations): -0.285
interaction score (4H797-AA): -1.31

B9: 4H930-AA (peptide)
chain: DEIAALKAKNAALEAKIAALEAEIAALKG
interaction score (4H930-AA): 1.74
interaction score (4H94-AA; mean of both orientations): -1.34

B10: 4H94-AA (peptide)
chain: DEIAALEAEIAALKAENAALKAKIAALKG
interaction score (4H94-AA): 2.24

B11: 4H745-AA (peptide)
chain: DEIAALKAENAALKAKIAALKAEIAALEG
interaction score (4H850-AA): -0.847
interaction score (4H891-AA; mean of both orientations): -1.51
interaction score (4H930-AA; mean of both orientations): -0.807
interaction score (4H909-AA): -0.361
interaction score (4H94-AA; mean of both orientations): -1.46
interaction score (4H797-AA): -1.44

B12: 4H891-AA (peptide)
chain: DEIAALKAKIAALKAKNAALKAENAALEG
interaction score (4H891-AA): -1.96
interaction score (4H930-AA; mean of both orientations): -1.86
interaction score (4H909-AA): -1.73
interaction score (4H94-AA; mean of both orientations): -0.169

B13: 4H605-AA (peptide)
chain: DEIAALKAEIAALKAENAALKAKIAALEG
interaction score (4H993-AA; mean of both orientations): -1.15
interaction score (4H794-AA; mean of both orientations): -0.923
interaction score (4H605-AA): 1.29
interaction score (4H780-AA; mean of both orientations): -1.53
interaction score (4H678-AA): -0.274
interaction score (4H717-AA): -1.23
interaction score (4H881-AA; mean of both orientations): -0.443
interaction score (4H906-AA; mean of both orientations): -1.14
